Measured values: a protein production outcome set (Wang et al. 2014)

Experiment: label from the status in PepcDB records

Sequence | protein production
MKSLLMRTGSMPVLQNRLISGGSSRKMTPISRTNSVESLSSYGERFAGGKISIEVKANVGMRRVLSESDVIRSERMLKRVGSKPSPARIPEDDEAGEEEIRFADGWGSMISGGLPVEEKCFTGGGVGGGSGYSGGYGNGGGGGYEDKSKIGDYYREMLRSNPNNSLLLMNYGKFLYEVEKDAEGAEEYYGRAILENPGDGEALSMYGRLIWETKRDEKRAQGYFDQAVNASPNDCMVLGSYARFMWEAEDDDDDDEEEEEEEWMAASPLMVSAV | failed
LADGDFIDLDWHGPHQPHAPLVIVLHGLTGSSHSPYVKGLQQALQDRGWASVAVNWRGCSGEPNLLPRSYHSGASEDLAEIVSHLRAQRPLAPLYAVGYSLGGNVLLKYLGESGVASQLEAAAAVSVPFRLDHCADRIGQGFSKVYQAHFMREMLAYVQLKQRHFHARGQHEQLATLERLGQLTNLRTFWDFDGKVTAPLNGFRDAHDYYRRSSSHFFLGQNRTPTLIIHSSDDPFVSSHSLPTARELSPQTRFELHDRGGHVGFVDG | failed
MAQHHGHLGAVYDAAGPQEVAALYDRWAETYESEMARAGYRHPAIGVALLARHLPRGARPLLDAGAGTGLLGEWLEIVGYPEVEALDISAGMLEVARAKGIYARCHNLPLGAALPFRDGAFAGIISTGVFTTGHVGAEALPELLRICRPGGVIVLTVKESLWQGGFAVSLEAAVASGLEHHHHHH | failed
MAKVKVLFVRNLANTVTEEILEKAFSQFGKLERVKKLKDYAFIHFDERDGAVKAMEEMNGKDLEGENIEIVFAKPPDQKRKERKAQRQAA | not failed
MKELTVPDTTPLLPIVDPFEQQDSEGPDSTKVYPFYRNLAEGKLTMQRCKSCGRIFYPPQAMCKHCNSTDYEWVEVPKRGKIHAFSALLLGFPMVIEEFAPFVIAVARFGDYPENGVQIVGAMFDVDYSELSIGDEVEWEILKIKGPGDKVRYWYHFRKVLEHHHHHH | failed
MTFSNQLTILRIILVPVFVLLLMQDSAWYRLLGVIVFVTASLTDIYDGYHARKYGEVTRLGAFLDPLADKLLITTAFLFYVWEGYLALWMVLLVAARDIVVTGLRVYAEHIDHPVVTSKEAKYKTFAQNLFAYVIMLFILLKEKSFFGPKMAAFMEVILHSPWLGYAMFAITLFTVWTGVSYLISNRRLIFRNSAGGR | not failed
MSNARIGIDMSKIYAPKSIDLSSFQLPDEKLQTKYGLPHKVEFCKSCVISNQRPNSAVEYEHKKESKKHTIHFDDEGICDACRVAERKKSTINWEERDRQLRELCDRFRSKDGSYDCVVPGSGGKDSFYAAHILKYKYGMNPLTVTWAPHMYTPWGWRNFQSWIHAGFDNHLFTPNGRVHRLLTRLAVENLFHPFQPFMIGQKAYAPKMALLHKIKLVVYGENEAEYGNPIGDTESAKRDWKYFTADDKSKIFLGGTSVQELKSDFGLNDNDLDAYLPADPQQIEEQQVEVHYLGYYLKWHPQSCYYYSVEHGGFEASPERTPGTYSKYNSIDDKIDDFHYYTTLTKFGIGRATYDASQEIRSGDITVEEGVALVKRFDQEFPERFAEEIFKYLSINLKEFPIASQMFEQPIMDRAYFMALADTFRSPHLWKKDGEQWKLRHQVTNLEKTKAEYLDLETV | not failed
MIHADPESAMPAAYAATPFAQRLGLTLPVVQAPMAGVSTPALAAAVSNAGGLGSLGLGAMNADAARQAIALTREQTTRPFNVNLFCHAPATADAAREARWLQYLAPRFAEFDAQPPATLREVYTSFLADDDMFDMLLAERPEVVSLHFGLPPASRIAALRQAGIYLMATATDMREAARIAAAGVDAIVAQGIEAGGHRGMFDPAARDEQLGTLALTRLLARRFDAPVIAAGGIMDGAGVAAVLALGAQAAQLGTAFISCPESSADMPHRHALLDQAEVATTLTRAISGRPARSIANRYTELGAAADCPPTPDYPIAYDAGKALHAAARARGDASYAAQWAGQAAALSRGVPAATLMRQLQAELNDCIGRLAR | failed
MAEEQQPSTDDETAAKSATTKQASPKAETDQSATQPVEDQPTATPEEVAALEKKAADFEDKYLRAEAEVQNMQARFQKEQATLIKYDGQQLAKDVLPVIDNLERALAVEASDDVAAQIKKGVQMTYDHLEDALKRNHVTEIAALGQTFDPTLHQAVQSVPAEDGQTAETVVNVLQKGYQLKDRVLRPAMVVVAQ | failed
MALTFYQYPKCGTCQKAKKWLDQHGIEVNSVHIVEQPPSKEELKQLYEQSGLELKKFFNTSGKKYRELGLKDKVKEASEDELLETLASDGMLIKRPILTDGDKVTVGFKEAEYEETWKK | failed
MTSAREAFDLYRAGRTAEAAALCERLVAAAPSVEAWHLLGVARLELGAAQAALTALDAGLALDPVRPGLLSARTLALTSLHRDDEAVVAARAALAVDPDNPPVFNALAVSLQRLGGFSEALAAIDHAVAAAPREAAYRAHRAALLVLLNRPAEAARDLEAVLEVNPSHPRVAGDLMWARRQTCDWREDAALDMLVKADLKLGRAGVAPFAALALFDLPVLHRRCATLSAPPSVPAPVWPVRRPGERLRVAYLSSDLHEHATARLLAGVLEAHDRSRFEIFAVSYGPETGGAMQERLRAACEHWIEARRLSDAEIALKCRQQGVDIAVDLKGYTQDGRPGILAHRAAPLQVSWLGYPGTLGAHADVVLADAVTLPPGAETNWSEAVVRLPCYQPNDGLTSVIPAPSRADMGLPERVRVFCCFNNPAKITPEVFATWMAILRAAPDSVLWLYAGAPGAADNLRGHARAAGVAPERLVFAEPAPHEAHLARHVLADLVLDTWPYGAHTTASDALRMGVPVLTLPGESFASRVGASLATAIGMTELIATSRADYVAKALAMAADGALKPRVAEAVRRSNLFDPVAFARSLETVYAGLVRR | failed
MDIFLVIGIITGLLAVVVGMIVKGANVAVLLNPAAAIIIIVGTSAAVMNSFPKNEFTNIPKVFKSLMRGKSKEDPVEIINQIVDMAQETRKNGLLSLEGKIHSIDNEFLKTGLEMVVDGVDPQHIAEVLEMEIESTEERHRGGALIFTTAGGAAPTLGVLGAVVGLIGALGNLNDTEKLGHMIAGAFVATLYGIFFGYVICHPFASRLKRKSLEEINVMRIITEGILDIQSGNNPKSIEKKLIGTLSPKQRQSIQSKGE | failed
VKPKGAFKAFTGEGQKLGSTAPQVLSTSSPAQQAENEAKASSSILIDESEPTTNIQIRLADGGRLVQKFNHSHRISDIRLFIVDARPAMAATSFILMTTFPNKELADESQTLKEANLLNAVIVQRLT | failed
MRTLLFLHLLGAAIWVGGHLVLALGILPGALRRRDPQAIRAFEQVYERIGIPALLLQVVSGLWLASLWLPFDHWFGATPVARALQLKLLLLAATAALGVHARLRLIPNLDAESLPKLGWHIAAITLVGLGFVAVGQSFRFGGAF | failed
MNQQLLAKTFVELADNLVADFDLIDFLRLLTDRCVGMLDASAAGVLLADRNGELRVMAASDEQVRLLELFQLQNDEGPCLDCFRTGAPVTVPDLSAVTARWPRFAVQARRSGFGAVQALPMRLRDEVVGALNLFRATPGPFDPAATPLAQALADVATISLLQQRTAHRSTVLNEQLQTALN | not failed
MKCHRVNELIELLHPAWQKEPDLNLVQFLQNLAQEAGFEGQLNELTDDILIYHLKMRDSDKEQVIPGLKKDYEEDFKTALLRARGVIKDLEHHHHHH | not failed
MDSGFTLRAPRNDKRRNPMPAILGTGEHRYRVVENFAKLPDGWQLTDVAAVAVDSLDRVYVFNRGAHPMVVLDREGNFLRSWGEGLFSRAHGLHIDADDNLYCTDDGDHTVRKCTSDGKVLLTIGIPAKPAPFMSGEPFHRCTHTALSPKGEIYVSDGYGNARVHKFTPDGKLIKSWGEPGTDPGQFNIVHNIATDSDGWVYVADRENHRVQVFNGEGKYETQWNNLHRPCALCCCGGRSPTFVIGELGPGLDINRNVPNLGPRLSIVDAKGNRIARLGGEEGPGVASGKFLAPHGIALDSKGDIYVGEVGVTNWATSFPDQEMPAVVRATRCLQKLERVRELEHHHHHH | failed
MDTQSLVPLSTLKQGEKAYVVDLELNGLLRRRVLDLGIVPGTSLQCVGTAPAGDPIAYLVRGTVIALRSEDARSIRVNSALV | failed
EEHPRAWIISVGNELLIGRTINTNAAWLGSRLTLLGFEVERVVTVPDRVEDIAEEVGRALGRARVVITTGGLGPTYDDVTLQGVAMALGRGLKLHPGALEMVRRFYSKRGLGLTEDRVKMAMLPDGAEPLENPVGAAPGAVVEARGSLVASLPGVPSEMEAMFEKALRPLLEEIAPPGAVVECGIAVVGVPESSLAPYIKEASRVSPRVYVKSHPQGSEIGKPLVR | failed
MQLINLRYISNWRVLLIAVVVLLCLLLSSQLGVVKPYEIVDPLDILGEGSTLFLTILIVIFMVTDRPRGNVTNLFYSGGLLLIFSMTLDVLDEFFRYPDALRLLSWLESFPLPVGLIIISFAAAEWRRENKMLSRQLMVREKNLRSHQWVDPLTSLYTTPYFIKLVEREIALQNSTDAESTVLVSVNFKNFAQYNHEMGTKAGDELLHQASELMVLLLRPQDCLCREHSDHFLILLPQTRLSQADRLMKVIAQNLNSELELPNYMSVEVHTHRVEELSAVDAITALHTQVEEMTHYAPLAN | failed
MVHGLDRRLGLAGRIRPDALVADRCGTLIMLAGERFYRLDPMSGRLERIPCLGGRGDRAGELSGPRAMALGSRNLYVADTDNNRVCVFATVNWQVRRFIGAENPAGEPAAGTGPGEFDRPLDLAVDPCDNLYVLDAGNRRIQRFDYHGEPVPHVPPFGADRLKQPVALALGPAPSPSGGGALVHCLDTGLTAIVTFDDQGRFLGTVGLDDLGFEPAGLAVDADGKWYVSDRERFIYAIRSAGDWSPLEEYEGKALRLFAGPGGEFYALEDGEVARLTRRRRYPPAGSWTGSGPVTGIYTSRSFDTGDGRLFWHRVTLDATVPPKTQVRLSYFIYETGRDPELLPADGEWRSFPSNPADALFERKEGRYLRVRLELISEDRHATPTVVSLRLQFPKQSYLRYLPAVFQDDERGRDFLERFLSLFESVLYDLEREIFTTRRYADPCAVPAGFLPWLASWLALPDADQWLEDGGARLRTLIARANELYRCRGTRGGLAELITLYTGKEPWIVEAFQLDRIRGRSEWRETMRLFGEDPYHFTVLLPPGGAGRTETVKRIVARERPAHTCATVVALENLFRLGGHTYLEVNTNLNQPLFALETSSSLARQTYLADGEKAGQAQVRARQGMDTLFE | failed
MTIHKKGQAHWEGDIKRGKGTVSTESGVLNQQPYGFNTRFEGEKGTNPEELIGAAHAACFSMALSLMLGEAGFTPTSIDTTADVSLDKVDAGFAITKIALKSEVAVPGIDASTFDGIIQKAKAGCPVSQVLKAEITLDYQLKS | not failed
MKEVIAQNAKLSADDLKEILPKANKLEDFAFEKNEDSTISEVFQAKNGSENEGYIIKVSPKGFNGPIDMVVAIDKNREISGVKVLSQAETPGLGAKVEESSFSEKFKGLTIEDNIKIVKTSPSSQGEIQGITGATISSNAVSSGINDAISFYKENVLGEDLSKEKILNLSKINLEGDLKELTIELEEGIDKVSIVSNGEKEIGYAIEASEVGMYEEKPIKFALGISTGGIITGVQIIDHKETAGLGDLIEDENFLNSFIGVSSLDKLSVKENTNEIDLSVYGEVVNVDSISGATKSSMAIIKGITNVINFYNNNLSLEHHHHHH | not failed
MSSTTNPSTHHTSTIGAIGAPSRRNTELALLVFAVLIPVFAYANVGLAINDEVPAGLLSYGFGLGLLAGVGHLVVRKFAPYADPLLLPLATLLNGLGLVAIWRLDQSDRLQSSKLFVEAAPRQLMYSALGVALFVAVLVFLRDHRVLQRYTYISMAGALVLLLLPLVPGLGHDNFGAKIWIKIPGLGTLQPGEFAKIVLAVFFAGYLMVKRDALALASRRFMGLYLPRGRDLGPIIVVWIISILILVFETDLGTSLLFFGMFVIMLYVATERTSWIVFGLLMSAVGAVGVASFESHVQQRVQAWLDPMHEYELSRQGVFGHTEQSMQALWAFGSGGTLGSGWGQGNSDLIGFAANSDFILATFGEELGLAGLMALLLLYALIVERGVRTALAARDPFGKLLAIGLSGAFALQVFVVAGGVMGLIPLTGMTMPFLAYGGSSVIANWALIGILLRISDTARRPAPAAPANPDAEMTQVVRP | failed
